Experimental findings from PMC8910563, “BdGUCD1 and Cyclic GMP Are Required for Responses of Brachypodium distachyon to Fusarium pseudograminearum in the Mechanism Involving Jasmonate” (International Journal of Molecular Sciences, 2022) are described below.

Substrate in this series: Nc1ncnc2c1ncn2[C@@H]1O[C@H](COP(=O)(O)OP(=O)(O)OP(=O)(O)O)[C@@H](O)[C@H]1O
As to the kind of experiment: adenylyl cyclase assay, cAMP by LC-MS/MS. The class given is biochemical, Brachypodium distachyon.

B1: BdGUCD1 (Brachypodium distachyon) (protein)
chain: MVLRTLGVDCCDGIADLGKLCHTTSIWTVDLAYLLHKFRVSFSFFTVTIGANPQYSAETFYREQLQEDIDRVDELFGKAVDAGISIQCRSISAYDIAFLLLSGHCIAIALVDKSKLISSWMNDVHDVQQFNEDSDYMGHYVVICGYDADACEFEIRDPASSRKREMVPMKSLEEARKSFGTDEDILLVSLTGKNGMKLSRKLPDSSL
notes: truncated fragment Met62-Leu268 (207 residues; full length 268 aa), N-terminal GST fusion kept (pGEX-6P-2), ~55 kDa, from E. coli BL21(DE3)pLysS
Regarding B1, the Michaelis-Menten constant (Km) was determined as 320 µM.

The term Km denotes the substrate concentration at which the rate is half of its maximum.
